The data set is described as follows: soluble fraction after stress (log2 fold change); higher = more stays soluble; pooled small domains, quantitative proteomics. The following applies: stress: 50 degC. The essentials: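 The stress applied to every library was 50°C. These custom libraries of small protein domains were pooled and measured at high throughput with quantitative proteomics as the read-out. Aggregation propensity is expressed as the base-two logarithm of the fold change in how much of each protein remains soluble. The higher the value, the more of that protein stays in solution.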
Regarding “HMFHDALVSFAERRVIFMKELVNRLNEARKAYYEGESIMSDKEYDNLYDKLVKMELTTGVVLPNSPTEEVG”, the “soluble fraction (log2)” value was -1.37.
As for “HMFIEHSKYKLSFKYNQLGKISNVINSNNGIIMDKHFDQNITLLAKLTENTFQEIIKHFPTIIIKRL”, the “soluble fraction (log2)” value was -3.19.
Take “HMFIEPPSLEELERRLRGRGTETDDVVDMRMRTALVELSQKMEYDYRLVNDDLDEATRQLVAYVNEIAEQ”: the “soluble fraction (log2)” value was 0.0568.
For “HMFIPMTDAQRHLFANKLAKLPELSEYSRGTESYEDFAIRIADMLLEPPKFRMFYPLLEQLGF”, the “soluble fraction (log2)” value is -1.88.
Consider “HMFIVTDQMQRVLDYITEKEKATNNDLEELLGVKSTRIYTITRKLIQHNLIIPVGKGKNKYYIL”, for which the “soluble fraction (log2)” value is -0.79.
Regarding “HMFKDVTVPSVINKTEAEATNMLKGLNLVVSVEYEENANKSDGIVTAQNVNANKVIKEGETVTITVNKQP”, the “soluble fraction (log2)” value stood at 0.00765.
As for “HMFKNWMPFDEARIFVRKLKFNSHDEFRKYLKANEINIPSKPWSTYKGKGWVSIGDFLGTHR”, the “soluble fraction (log2)” value was -2.82.
Then “HMFLPGETFDVKIVKIGEGENQGVGYLDDGTMIVIENGRDHLNELARVIVTRVLQNSAGQMIFSDYEE”, with -2.27.
Then “HMFLTPLEETRLAIEEVVIAKNIAIDLFPRESAIRKQQHELIYHYHLKGLTVGTEKNKRLRIFPRGY”, with -0.000251.
As for “HMFLTSDEGKIMQLLEDKQRITRKDAQELLGVSQSTAGRILKTLVDNGQITQRGGGRTTRYELIK”, the “soluble fraction (log2)” value stood at 0.184.
For “HMFMKNTEVALAIKGKFSNQTTITSKELVLFLSDLFPELSNKTIPWKINQLKAENLIYQTGRGIYTFN”, the “soluble fraction (log2)” value is -2.57.
Then “HMFMMVAGHLQIKNEKYYMVLELRTEQGERKTKWIGTGLAVKGNKRRAEAMLEETRTKYLSPV”, with -1.95; and “HMFMPGTIIKQFRELRNYSQDYVSRKMGISQNAYSKIENNITQLTVTHVKQLSSILDVPIVELLR”, with -3.32; and “HMFMSDDDIRILVKEWLQSQNRKSYQLAEEIGIRPQTFYAQMSVRKISANTKKALSRIIPGL”, with -0.86.
As to “HMFMSKTAMVAIISEADKYGLFNIPEGLSVEKTADEIFEGHIEVDFDKLKNELDFVYKNEALEKQFQEN”, the “soluble fraction (log2)” value was -0.534.
Turning to “HMFNPEQDPKQLTGRERAVADLIGLGANNAEIAIRLSMSERTVKAHLTSIFQQLNVRDRVQLALVMNQL”, the “soluble fraction (log2)” value is -0.585.
In the case of “HMFPASQPVPTDLNQIVRAGLEVFSGRLEGIDVRVSLEPELPRVNVDPEHFKRIVVNLVDNAAEAMQNS”, the “soluble fraction (log2)” value was -0.0549.
For “HMFPATAPQLKAVHAILGKQGISDELDKLARVNEWLVGLNKEPVAAISELDKHTTSGLIDHLQGELNE”, the “soluble fraction (log2)” value was found to be 0.282.
On to “HMFPDLSPEQQRIVDVLTKSNDLQLNQLSVKTGIPIGDITSILFQMEMMGVVKPMAGGNYHLL”, for which the “soluble fraction (log2)” value is -1.36.
“HMFPDLTEDEQLIVDVLQRTGDLQINSLIVEANIPVNKMSEILFELEMKGVIRTLAGGVYQLL”: the “soluble fraction (log2)” value was -1.46.
Then “HMFPDRLRELRKGRNITLETLAEEMNKHLEPGQKPNTAAQIGNWERGDRSPSYIEVRKLADFFNVSMDFL”, with -0.636; and “HMFPELNAEETQVVQLLQKQTEGMQVNSLVVESNIPITRMSGILFELELKGIIRNYAGGVYKL”, with -2.16.
Take “HMFPELSEEAKVIVDALSKENDQQLNVLIANTGMAVGTMQAKLFELEMQGVVKPLAGSVYHLM”: the “soluble fraction (log2)” value is -0.0727.
As for “HMFPELTDDEQLIVSTLAKTNDMQINMLAVRTGIPVQRMSALLFSLEMKGVVKMYAGGTYHLL”, the “soluble fraction (log2)” value was -1.05.
On to “HMFPNQLLISRLSNQLSASERFAAVSSIAQLKNIDYDVLHVLVHTMNSDPNSNVRLAALEALSR”, for which the “soluble fraction (log2)” value is -0.529.
Take “HMFPQQGEIRQGVIASITPDQILVNVGTKSEGIISGKELEAISKSERDSLNVDQKIAVYILDPEDSNG”: the “soluble fraction (log2)” value was 0.259.
On to “HMFQNPSQVVTTRVGELRAAIPTAQQGRITMGVAVVEDANSVRSVLISTSEPRGYLRPGVTLGPGETMV”, for which the “soluble fraction (log2)” value worked out at 0.0203.
As for “HMFQPFFENLRKASIPVSLREYLTFLEGMKKGLVTYDIEAFYFLARAAMVKDERNIDKFDRAFSATFKG”, the “soluble fraction (log2)” value was -0.287.
Regarding “HMFQTAADVAYRIISQKILDGEFPPGMKLSRRKMAEVTSVSVIPVIEALKKLEEDGLVESKPQWGSFVTI”, the “soluble fraction (log2)” value is -1.27.
Then “HMFQYEKIKDYILTGLEEGTWQAGDKIPSEAELVMSLNVSRMTVNRAVRELANSGLLVRIPGAGTFVATE”, with -0.575; and “HMFSIDRNIRRLRKEAGLTQEELAQKLFVTRQTISLWELGKVHPDLETLQKLAEQFQVDLLQVLYGPE”, with -2.17.
Then “HMFSLDMDRLVRPGFMASGNVTFSDGVTGKWALDQMGRLALETAQKGYQPSPADVQAFQRELQQQLQRQG”, with -0.0885; and “HMFSPTKLKEKRESQGLSQSQLASSLGISRASYFNWESGKTKPNQNNLSKLSEILNVDPRYF”, with 0.355.
On to “HMFSSVSVPAELSNQRFDKVVAELTPDLSRSKIKQLILLGKVLLNGEVTPPKQKVETGDEIEIFYTRQIE”, for which the “soluble fraction (log2)” value is -0.63.
Then “HMFTLDIGTIIRNRRLELNLTLEEIGNAVGVSKSTVQKWENGFISNMKRDKISALAKVLNINPVTLITGEY”, with -1.12.
“HMFTLNEIIGQKIRNARISAGLTLDELSKMTGISAAQLSSLETGYRRANIDTLYAIAKAIGIDVSNLLKY”: the “soluble fraction (log2)” value is -0.46.
“HMFTRFTVAQDGWTIGGFTAKEMAVSTAKQHAVDTGKPVTVVAHVAGGGSREAIFNSDGTNDKIWN”: the “soluble fraction (log2)” value was 0.0601.
Turning to “HMFTYEETIGKSADVYLTIPALKAGKGKIIISVRGSVHELDAMTNNAEKISTGAVVKIVRIEHGNILLVEN”, the “soluble fraction (log2)” value was -1.63.
In the case of “HMFVEKDSIINKGNNSYNFVITDNNNKVLVEYNGLLPDLFKEEQGVVIEGRLKSDFIIHAFTVF”, the “soluble fraction (log2)” value was -0.209.
Consider “HMFVGVDMAVKEEIGKEGVAFTDLRPAGKVSIGDDVYDAVSETGAFITRGTSVRVLKYQAGQVYVVK”, for which the “soluble fraction (log2)” value was -0.154.
Then “HMFVTFFHELKSAGVPVSLREYLTLMEAMDRDLASRRVEEFYYLARTALVKDERNLDKFDRVFGHVFKGL”, with -3.65; and “HMFWVESDVDFVDKTSAHNAIKENERVIGMYISYRLNGTWTTEQYVGIDTSKDNWENPDNWNIL”, with -0.308.
As for “HMFYLPEPLTEQELRILGMLLDGRSNPEIAAELFIAVGTAKWHVHNILQKLGVANRAQAIVKAHELGLT”, the “soluble fraction (log2)” value is -1.91.
Then “HMFYNELMNFIVYKDSQKIGKIVNINDKLPQPVFEVLINDKKFMVPIHDDFIEKIDKEKKSIHIVIPDGLL”, with 0.0184; and “HMFYWTDLIGLDVINTADERLGKVVGLIETGANAVLRVMGDDQVERLLPFGSAVVLTVEKEAGQIRVEW”, with -0.89; and “HMGAARVTPLYNLRLREGPSTATARLDVVPRGTTLEVRAWDETGDWAQVEYRGQIGWIAAWLAEVEGEAP”, with -0.136.
As for “HMGADSFTGYTPIHKIDNPSDGINDGASYVVYFQKDGTDPTEFYKAVNANASTLAQLTSGTEYDLASSKKL”, the “soluble fraction (log2)” value was 0.0305.
With “HMGAEIRDKVRAALAGLNPRAAEIFVMRYFDGYGNREIARLLNTSWSTIAVTLHRTRAKLQKELK”, the “soluble fraction (log2)” value was -0.101.
Regarding “HMGAGDKQAQQASLMQIIALQKEGMALGLVEPKHLYHSFSKMIENAGFKDVQSFAVDPSTQQ”, the “soluble fraction (log2)” value was -0.0552.
Regarding “HMGAGEQMLPKVMFAEGDRVVHKVFGEGTVVTVDRPAQTYDIQFDKLRGTRRIMFRAELEGI”, the “soluble fraction (log2)” value was -0.554.
Take “HMGAGLDDLVRKSLHNAGLKADDNVVSWISGNLGSDRMVSRMELEKLVLFVAGQSEITLEDAQAVIGD”: the “soluble fraction (log2)” value was -0.305.
As for “HMGAGLKIGNDHEYANYLEYKVSVEKYAPGAILGEIKQKGIQFNTTISKTTFYRYITDGVFLTITNADLPV”, the “soluble fraction (log2)” value came to 0.223.
Consider “HMGALTGQERRAEIMNILRQSTMPLSGAALGKQLGVSRQVVVQDIALLRQSGEEIYATNRGYVTG”, for which the “soluble fraction (log2)” value was -0.129.
Then “HMGAQPLIEPLSERELEVLALIAEGLTNAEIGRRLFIATGTVKRHVNTIYGKLDVHGRIEAIARARDLHLI”, with -0.276; and “HMGAQRDFELQLIDVIRQNPGLTYKAYGEKLSVSQATVKRLVAKLKETGSIRREGSQRKGTWIITDD”, with -0.867; and “HMGARWPIQDRPLTATEAAAVRRMYAGGLPHGRSKNSVITEVWGDLSNKPKRLDWLNQALEGGA”, with 0.184.
For the sequence “HMGASGVEVPDVAGMSTAQAVSSLEQKGFVVNRTESYDAGVEKGNVISQSPEGGTKAPNGSAVTIRISQGA”, the “soluble fraction (log2)” value was determined as 0.428.
For the sequence “HMGASIQITVNNTPVMLKNKTHYTLVDVLDFYPFDLSKMGGTELYTAINGVKSGFTDPVHANDSIEIYWI”, the “soluble fraction (log2)” value is -0.148.
For the sequence “HMGASSLVGRSARVLQAVTDSDGRIKLAGETWSARLAAGATSTVGPGEEVRVIAIHGATAIVAPV”, the “soluble fraction (log2)” value is 0.0322.
Turning to “HMGASVGEVESVKTASEIYTAAAGKIVAVNDAVAKDPSLVNSDPYGNGWLVKLEIADLSAINA”, the “soluble fraction (log2)” value stood at 0.000115.
Take “HMGAVDIATARQLISEIGLPIMLKAEGGGGGRGIFAIHNEAELEDAFFKASTMAQASFGNPRLFVEKF”: the “soluble fraction (log2)” value is -0.228.
As to “HMGAVFEFIMEEEEPERIDKLLSSALPDLSRSYLQKLVKEGAVLVNKKEVKPNHKVNPGDVVEISVPEPE”, the “soluble fraction (log2)” value was determined as 0.18.
For the sequence “HMGAVGISQKVTSLETAVLGKNFAKDPLIDRVARLEQTVLPKQAEANASLSLPERVSKLLEKVPIAAG”, the “soluble fraction (log2)” value worked out at 0.223.
As for “HMGAVPKNYFPAVEKGLQDSVQKGLLAGYPVVGVKAILYDGSYHPVDSSEMAFKTATIQAFKKGFMEA”, the “soluble fraction (log2)” value was 0.2.
On to “HMGAYIPSYAPVDINAATHTVVRGDTVYNISKRYHVSQEDFRAWNGMADNTLSIGQVVKVKPAGYTAPK”, for which the “soluble fraction (log2)” value was -0.087.
For the sequence “HMGDAVSRAYFALADDLLKGELTETVSEVLIRTRYELTSAQLQAVLHRIAQEGWAHKKPGYGWEFSAMLT”, the “soluble fraction (log2)” value was -1.83.
Consider “HMGDEHYDTISAFIKSVRGSDPDAALYWLAKMILAGEDPRFILRRLIVLSGEDIGLADPQGI”, for which the “soluble fraction (log2)” value is -0.653.
As to “HMGDEPGAGYKWREDVLLRVMSEHGIDESARDDFVRHAVKFDDDDNLYLKKAEIIAAAEAWESSS”, the “soluble fraction (log2)” value is 0.17.
On to “HMGDFLLQVDFPPALLEMLPEGKRQAAIGVLSHDPRPAYQRTPGRVYGLNFAGHNIRFAVSENLLTVLEV”, for which the “soluble fraction (log2)” value is -2.08.
